In IntAct's records for PubMed 20923837:

Columns and labels:
tbcd5_human TBC1D5 = tbcd5_human TBC1D5 (UniProt Q92609)
vps35_mouse Vps35 = vps35_mouse Vps35 (UniProt Q9EQH3)

Substance: Vacuolar protein sorting-associated protein 29 (Mus musculus) (from UniProt Q9QZ88) L152E
- effect of a mutation on the interaction (tbcd5_human TBC1D5): disrupting interaction strength
- effect of a mutation on the interaction (vps35_mouse Vps35): with no effect
